Experimental data from patent US20120045392A1 (CASE WESTERN RESERVE UNIVERSITY, published 2012).

How the values were obtained:
[1] = molecular target: T1, pyro-Glu(3-40/42) fibrils (N-terminal pyroglutamate (pyro-Glu at Aβ position 3)); test: SPR, fibrils
T1 construct: Fibrillar aggregate of pyro-Glu(3-40/42)-Aβ

[2] = molecular target: T2, wild-type Aβ(1-40); test: SPR (Table 1)
T2 construct: also called WT Aβ(1-40); Aβ (1-40) monomers

[3] = molecular target: T3, pyro-Glu(3-40/42)-Aβ (N-terminal pyroglutamate (pyro-Glu at Aβ position 3)); test: SPR or EU-ELISA (Table 1). Column 5 has no head of its own and is read as under the head 'KD for pyro-Glu (3-40/42)' printed at c4. Restated as (37.3 nM) in the line below. Differs from c4 (4.17E-9); second, unheaded column (c5) beside c4 under 'KD for pyro-Glu (3-40/42)'; probably the other peptide length (3-40 or 3-42), which the patent does not state
T3 construct: also called pyro-Glu(3-40/42) monomers; N-terminally modified pyro-glutamate Aβ
T3 sequence (peptide, as listed by the source): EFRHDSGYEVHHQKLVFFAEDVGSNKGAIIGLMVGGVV

[4] = molecular target: T3, pyro-Glu(3-40/42)-Aβ; test: SPR; restated as (4.2 nM) in the line below
[5] = molecular target: T4, Aβ (1-40) fibrils; test: SPR / Europium ELISA
T4 construct: Fibrillar aggregate of wild-type Aβ(1-40)
T4 sequence (peptide, as listed by the source): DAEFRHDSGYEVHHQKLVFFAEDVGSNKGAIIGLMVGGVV

B1: PGA 5 (antibody, IgG1, V domains shown)
VH: EVKLVESGGGLVQPGGSLRLSCVTSGFTFTENYMSWVRQPPGKALEWLGFIRNKANGYTTEYSASVKGRFTISRDNSQSILYLQMNTLRAEDSATYYCARDWDYGSSHAMDYWGQGTSVTVSS
VL: DILLTQSPAILSVSPGERVSFSCRASQNIGTSMHWFQQRTNGSPRLLIKYASESVSGIPSRFSGSGSGTDFTLSINSVESGDIADYYCQQSNSWPFTFGSGTKLEI
notes: also called 1F2 2E3; PGAS
[1]
  Kd: 4.53 nM
[2]
  binding result: no binding
[3]
  Kd: 37.3 nM
[4]
  Kd: 4.17 nM
[5]
  binding result: no binding
